Results published in US20120134997A1 (COMPUGEN, published 2012).

Biological target: T1, B7H4-Ig (R&D Systems, Inc. cat.#4206-B7) (mouse, UniProt Q7TSP5 29-256)
T1 construct: Bought reagent; also called Recombinant mouse B7-H4 protein (R&D Systems, CAT #4206-B7); not shown: Ig part of the bought fusion; not described
T1 sequence (looked up): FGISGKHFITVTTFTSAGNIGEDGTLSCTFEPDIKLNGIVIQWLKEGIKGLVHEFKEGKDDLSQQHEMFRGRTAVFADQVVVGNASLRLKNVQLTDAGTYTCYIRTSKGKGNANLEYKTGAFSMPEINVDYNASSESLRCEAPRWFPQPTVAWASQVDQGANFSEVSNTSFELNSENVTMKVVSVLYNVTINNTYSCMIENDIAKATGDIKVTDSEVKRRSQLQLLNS
Experiment: BIAcore 3000 surface plasmon resonance; Fc fused AI216611 ECD (SEQ ID NO:104) immobilised directly on a CM5 chip (400-500 RU), B7H4-Ig injected at 5 and 10 µM, empty flow cell subtracted
Protocol: Solution containing two different concentrations of B7H4-Ig (5 and 10 micro molar) was injected. As control, the solutions were also injected onto an empty flow cell with no ligand immobilized.
Data was analyzed using BIAevaluation software ([…].). A zero baseline level was obtained by subtracting the background responses from injection of the analytes through a control flow cell with no ligand immobilized.

B1: AI216611_T0_P0_ECD_mFc (Fc fused AI216611 ECD, SEQ ID NO:104) (Fc fusion)
chain: LQSQGVSLYIPQATINATVKEDILLSVEYSCHGVPTIEWTYSSNWGTQKIVEWKPGTQANISQSHKDRVCTFDNGSIQLFSVGVRDSGYYVITVTERLGSSQFGTIVLHVSEILYEDGSENLYFQGSGEPRGPTIKPCPPCKCPAPNLLGGPSVFIFPPKIKDVLMISLSPIVTCVVVDVSEDDPDVQISWFVNNVEVHTAQTQTHREDYNSTLRVVSALPIQHQDWMSGKEFKCKVNNKDLPAPIERTISKPKGSVRAPQVYVLPPPEEEMTKKQVTLTCMVTDFMPEDIYVEWTNNGKTELNYKNTEPVLDSDGSYFMYSKLRVEKKNWVERNSYSCSVVHEGLHNHHTTKSFSRTPGK
notes: also called AI216611-ECD-Fc
B1: binds.
